How the values were obtained:
[1] = biological target: the molecule itself; test: cross-linking; about 0.5 mg/mL purified His-MotA in PN buffer (50 mM NaPO4 pH 7.0, 150 mM NaCl) with 0.1% (w/v) DM, 20 °C, 0-5 mM BS3 for 5 min; SDS-PAGE, CBB staining and immunoblot
[2] = biological target: the molecule itself; test: cross-linking; about 0.5 mg/mL purified His-MotA in PN buffer (50 mM NaPO4 pH 7.0, 150 mM NaCl) with 0.1% (w/v) DM, 20 °C, 20 mM EDC for 0-120 min; SDS-PAGE, CBB staining and immunoblot
[3] = biological target: the molecule itself; test: negative-stain electron microscopy, single particle 3D reconstruction; MotA complex from the 210 kDa gel filtration fraction, stained with 2% uranyl acetate; 2-fold rotational symmetry applied; 25 Å resolution

B1: MotA from Aquifex aeolicus with N-terminal histidine tag (His-MotA^Aa) (natural protein, UniProt O67122 1-254, looked up)
chain: MDVGTIIGIIAAFLLILISILIGGSITAFINVPSIFIVVGGGMAAAMGAFPLKDFIRGVLAIKKAFLWKPPDLNDVIETIGEIASKVRKEGILALEGDIELYYQKDPLLGDMIRMLVDGIDINDIKATAEMALAQLDEKMSTEVAVWEKLADLFPAFGMIGTLIGLIQMLRNLNDPSALGPGMAVALITTLYGAILANAFAIPVANKLKKAKDMEVLVKTIYIEAIEKIQKGENPNVVKQEAAIMLGVELPEEV
notes: MotA, flagellar motor stator protein of Aquifex aeolicus; full-length motA gene cloned into pColdI; four transmembrane helices, cytoplasmic residues 54-149 and 205-254; Expressed from pColdI-motA^Aa without MotB; 28 kDa with the tag; source: E. coli BL21-CodonPlus(DE3)-RIPL, membrane fraction solubilized in detergent, purified (Ni-NTA agarose, gel filtration); not shown: His6, N-terminal, kept
stoichiometry N [1]: 2 | stoichiometry N [2]: ≥ 4 | stoichiometry N [3]: 4

— paper PMC4987623, “The tetrameric MotA complex as the core of the flagellar motor stator from hyperthermophilic bacterium” (Scientific Reports, 2016)
